T1: extracellular domain (ECD) of recombinant human Sortilin with a C-terminal HIS tag (ECD-huSortilin-HIS) (human, UniProt Q99523 78-755)
T1 construct: Bought (R&D Systems); also called human sortilin-ECD
T1 sequence: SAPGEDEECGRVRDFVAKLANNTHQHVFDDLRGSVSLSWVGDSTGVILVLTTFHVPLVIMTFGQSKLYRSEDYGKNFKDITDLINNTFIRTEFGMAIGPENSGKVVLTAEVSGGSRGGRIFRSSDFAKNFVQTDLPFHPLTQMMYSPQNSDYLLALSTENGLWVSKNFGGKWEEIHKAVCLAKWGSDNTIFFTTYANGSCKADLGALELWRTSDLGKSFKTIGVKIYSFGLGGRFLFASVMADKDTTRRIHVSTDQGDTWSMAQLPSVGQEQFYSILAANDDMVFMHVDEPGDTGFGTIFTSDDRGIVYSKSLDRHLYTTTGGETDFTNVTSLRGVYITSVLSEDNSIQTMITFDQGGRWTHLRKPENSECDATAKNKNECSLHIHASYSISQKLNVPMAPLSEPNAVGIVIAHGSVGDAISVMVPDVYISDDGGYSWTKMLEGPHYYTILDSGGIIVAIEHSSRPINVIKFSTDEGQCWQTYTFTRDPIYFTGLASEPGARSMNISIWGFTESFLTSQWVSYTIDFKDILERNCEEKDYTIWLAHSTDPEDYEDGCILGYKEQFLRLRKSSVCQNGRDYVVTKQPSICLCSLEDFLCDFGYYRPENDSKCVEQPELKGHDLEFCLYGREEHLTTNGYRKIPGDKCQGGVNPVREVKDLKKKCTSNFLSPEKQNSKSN


Columns and labels:
[1] = target: T1, extracellular domain (ECD) of …; assay: SPR (Biacore T200), mAb captured on anti-mouse chip, sortilin as analyte, global 1:1 fit
Protocol: Analysis was performed using a Biacore T200 to compare the binding affinity of murine anti-huSortilin antibodies to recombinant human Sortilin. Anti-mouse antibody was immobilized on sensor chip CM5 (GE Healthcare Life Sciences) via amine coupling, and mouse antibodies (ligand) were captured to a level to ensure a maximum binding of analyte of 50 RU (approximately 100RU of ligand binding). Various concentrations of Sortilin (ranging from 0.1 nM to 300 nM) were passed over the captured ligand at 50 µL/min in running buffer (HBS + 0.05% P-20, 1 mg/mL BSA) for 180-300 s association time and 300-900 s dissociation time. Regeneration of the chip surface was accomplished by 2 short injections of 10 mM Glycine-HCI at pH 1.7. Data was blank subtracted to both a sensor not containing ligand and 0 nM analyte concentration. Analysis was performed using a global 1:1 fit with Biacore Insight Evaluation software (v2.0) with bulk refractive index set to zero RU.

[2] = target: T1, extracellular domain (ECD) of …; assay: SPR (Biacore T200), mAb captured on anti-human chip, sortilin as analyte, global 1:1 fit
Protocol: Analysis was performed using a Biacore T200 to compare the binding affinity of chimeric and humanized antibodies to recombinant human Sortilin. Anti-Human antibody was immobilized on sensor chip CM5 (GE Healthcare Life Sciences) via amine coupling, and humanized antibodies (ligand) were captured to a level to ensure a maximum binding of analyte of 50 RU (approximately 100 RU of ligand binding). Various concentrations of Sortilin (ranging from 0.1 nM to 300 nM) were passed over the captured ligand at 50 µL/min in running buffer (HBS + 0.05% P-20, 1 mg/mL BSA) for 300 s association time and 1200 s dissociation time. Regeneration of the chip surface was accomplished by 2 short injections of 3 M MgCl. Data was blank subtracted to both a sensor not containing ligand and 0 nM analyte concentration. Analysis was performed using a global 1:1 fit with Biacore Insight Evaluation software (v2.0) with bulk refractive index set to zero RU.

| Binder | koff [1] [s⁻¹] | kon [1] [M⁻¹ s⁻¹] | koff [2] [s⁻¹] | kon [2] [M⁻¹ s⁻¹] |
| --- | --- | --- | --- | --- |
| mouse monoclonal antibody 5E20 (antibody, V domains shown, also called murine 5E20; m5E20) VH: EVQLVESGGDLVKPGGSLKLSCAAPGFTFSTYGMSWVRQTPDKRLEWVAIISSGGSYTYYSDTVKGRFTISRDNAKNTLYLQMSSLKSEDTAMYYCSRSSSHWYFDVWGTGTTVTVSS VL: DILMTQSPSSMSVSLGDTVSITCHASQGISSNIGWLQQKPGKSFKGLIYHGTNLKDGVPSRFSGSGSGADFSLTISSLESEDFADYFCVQYAQFPYTFGGGTKLEKR | 0.000139 | 87700 |  |  |
| mouse monoclonal antibody 6B15 (antibody, mouse IgG1, V domains shown) VH: EVQLVESGGDLVKPGGSLKLSCAAPGFTFSTYGMSWVRQTPDKRLEWVAIISSGGSYTYYSDTVKGRFTISRDNAKNTLNLQMSSLKSEDTAMYFCSRSSSHWYFDVWGTGTTVTVSS VL: DILMTQFPSSMSVSLGDTVSITCHASQGISSNIGWLQQKPGKSFKGLIYHGTNLKDGVPSRFSGSGSGTDFSLTISSLESEDFADYYCVQYAQFPYTFGGGTKLEKR | 0.00013 | 127000 |  |  |
| chimeric 11M14 (antibody, human IgG1, kappa, L234A L235A, V domains shown) VH: EVQLVESGGDLVKPGGSLKLSCAASGFTFNIYGMSWVRQTPDKRLEWVATISSGGIYTYYPDILKGRFTISRDNAKNTLYLQMSSLKSEDTAMYYCARHPGGAMDYWGQGTSVTVSS VL: DIQMTQSPASLSVSVGETVTITCRVSENIYSNLAWYQQKQGKSPHLLVYAATNLADGVPSRFSGSGSGTQYSLKINSLQSEDFGSYYCQHFWGTPPWTFGGGTKLEIKR |  |  | 0.000969 | 384000 |
| mouse monoclonal antibody 2C14 (antibody, mouse IgG1, V domains shown) VH: EVQLVESGGDLVKPGGSLKLSCAASGFTFNTHGMSWVRQTPDKSLEWVATISTGGFYTSYPDSVKGRFTISRDNAKNTLFLQMSSLKSEDTAMYYCAKSSSHWYFDVWGTGTTVTVSS VL: DILMTQSPSSMSVSLGDTVSITCHASQGISSNIGWLQQKPGKSFKGLIYHGTNLEDGVPSRFSGSGSGADYSLTISSLEYEDFADYYCVQYAHFPYTFGGGTKLEIK | 0.00245 | 208000 |  |  |
| mouse monoclonal antibody 11M14 (antibody, V domains shown, also called murine 11M14; m11M14) VH: EVQLVESGGDLVKPGGSLKLSCAASGFTFNIYGMSWVRQTPDKRLEWVATISSGGIYTYYPDILKGRFTISRDNAKNTLYLQMSSLKSEDTAMYYCARHPGGAMDYWGQGTSVTVSS VL: DIQMTQSPASLSVSVGETVTITCRVSENIYSNLAWYQQKQGKSPHLLVYAATNLADGVPSRFSGSGSGTQYSLKINSLQSEDFGSYYCQHFWGTPPWTFGGGTKLEIK | 0.000569 | 91100 |  |  |
| mouse monoclonal antibody 2F18 (antibody, mouse IgG1, V domains shown) VH: EVQLVESGGDLVKPGGSLKLSCAASGFTFNIYGMSWVRQTPDKRLEWVATISTGGIYTYYPDSVKGRFTISRDNAKNTLYLQMSSLKSEDTAMYYCARHPVGALDYWGQGTSVTVSS VL: DIQVTQSPASLSVSVGETVTITCRASENIYSNLAWYQQKQGKSPHLLVYTATTLADGVPSRFSGSGSGTQYSLKINSLQSEDFGSYYCQHFWGTPPWTFGGGTKLEIK | 0.000162 | 57600 |  |  |
| mouse monoclonal antibody 2P22 (antibody, mouse IgG2b, V domains shown) VH: EVQLVESGGDLVKPGGSLKLSCAASGFTFSIYGMSWVRQTPDKKLEWVAAISSGGIYTYYPDSVKGRFTISRDNAKNTLYLQMSSLKSADTAMYYCTRNDYDWFAYWGQGTLVTVSA VL: DIQMTQSPSSLSASLGERVSLTCRASQDIGSSLNWLQQEPDGTIKRLIYATSSLDSGVPKRFSGSRSGSDYSLTISSLESEDFVDYYCLQYASSPYTFGGGTKLEIK | 0.000237 | 108000 |  |  |
| mouse monoclonal antibody 8H24 (antibody, V domains shown, also called murine 8H24; m8H24) VH: QAYLQQSGTELVRPGASVKMSCKASGYTFTSYSMHWVKQTPRQGLEWIGAIYPGNDATSYNQKFKGKATLTVDKSSSTAYMQLSSLTSEDSAVYFCAREGYYGSSFEAWFASWGQGTLVTVSA VL: DVLMTQTPLSLPVSLGDQASISCRSSQSIVHSNGNTYLEWYLQKPGQSPKLLIYKVSNRFSGVPDRFSGSGSGTDFTLKISRVEAEDLGVYYCFQGSHVLPTFGGGTKLEIK | 0.00044 | 96600 |  |  |
| hu8H24VHv2/hu8H24VLv1 (antibody, V domains shown, Humanized variable regions; also called 8H24H2L1) VH: QAQLVQSGAEVVKPGSSVKVSCKASGYTFTSYSMHWVRQAPGQGLEWIGAIYPGNDATSYNQKFKGRATLTVDKSTSTAYMELSSLRSEDTAVYFCAREGYYGSSFEAWFASWGQGTTVTVSS VL: DVVMTQTPLSLPVTPGEPASISCRSSQSIVHSNGNTYLEWYLQKPGQSPQLLIYKVSNRFSGVPDRFSGSGSGTDFTLKISRVEAEDVGVYYCFQGSHVLPTFGGGTKVEIK |  |  | 0.00257 |  |
| hu8H24VHv2/hu8H24VLv2 (antibody, V domains shown, Humanized variable regions; also called 8H24H2L2) VH: QAQLVQSGAEVVKPGSSVKVSCKASGYTFTSYSMHWVRQAPGQGLEWIGAIYPGNDATSYNQKFKGRATLTVDKSTSTAYMELSSLRSEDTAVYFCAREGYYGSSFEAWFASWGQGTTVTVSS VL: DVVMTQTPSSLPVTPGEPASISCRSSQSIVHSNGNTYLEWYLQKPGQSPQLLIYKVSNRFSGVPDRFSGSGSGTDFTLTISRVEAEDVGVYYCFQGSHVLPTFGGGTKVEIK |  |  | 0.0025 |  |
| chimeric 5E20 (antibody, human IgG1, kappa, L234A L235A, V domains shown) VH: EVQLVESGGDLVKPGGSLKLSCAAPGFTFSTYGMSWVRQTPDKRLEWVAIISSGGSYTYYSDTVKGRFTISRDNAKNTLYLQMSSLKSEDTAMYYCSRSSSHWYFDVWGTGTTVTVSS VL: DILMTQSPSSMSVSLGDTVSITCHASQGISSNIGWLQQKPGKSFKGLIYHGTNLKDGVPSRFSGSGSGADFSLTISSLESEDFADYFCVQYAQFPYTFGGGTKLEIKR |  |  | 0.000396 | 597000 |
